In the supplement of paper PMC9112550, “Optimization of the antimicrobial peptide Bac7 by deep mutational scanning” (BMC Biology, 2022):
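Also: peptides expressed intracellularly from a pBAD plasmid library in pooled LB shake-flask culture, induced with 0.3% L-arabinose, DNA abundance read by NGS, three biological replicates, DESeq2 with apeglm shrinkage.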

The sequences below were run on Escherichia coli TOP10 (assay: shrunken log2 fold change of peptide-encoding DNA abundance (4.5 h post-induction vs induction); higher = less antimicrobial activity (less host growth inhibition)). Details: time post-induction: 4.5 h; library: site-saturation at positions 5, 18, 19, 20.
With RRIRDRPPRLPRPRPRPDMDPRP the “shrunken log2 fold change” value was 0.2.
For RRIRQRPPRLPRPRPRPIRAPRP, the “shrunken log2 fold change” value was 0.0231.
RRIRKRPPRLPRPRPRPKYHPRP was tested, and the “shrunken log2 fold change” value was -0.204.
With RRIRDRPPRLPRPRPRPYGFPRP the “shrunken log2 fold change” value was -0.0405.
RRIRRRPPRLPRPRPRPTHFPRP was tested, and the “shrunken log2 fold change” value was 1.01.
In the case of RRIRVRPPRLPRPRPRPNITPRP, the “shrunken log2 fold change” value was -0.808.
In the case of RRIRFRPPRLPRPRPRPYSNPRP, the “shrunken log2 fold change” value was -0.603.
RRIRLRPPRLPRPRPRPACRPRP was tested, and the “shrunken log2 fold change” value was 0.227.
With RRIRYRPPRLPRPRPRPMSQPRP the “shrunken log2 fold change” value was -0.0802.
For RRIRERPPRLPRPRPRPLVAPRP, the “shrunken log2 fold change” value was 0.0966.
RRIRGRPPRLPRPRPRPPHMPRP was tested, and the “shrunken log2 fold change” value was 0.489.
RRIRVRPPRLPRPRPRPPCKPRP was tested, and the “shrunken log2 fold change” value was 0.106.
In the case of RRIRFRPPRLPRPRPRPYECPRP, the “shrunken log2 fold change” value was -0.0179.
For RRIRMRPPRLPRPRPRPWMPPRP, the “shrunken log2 fold change” value was 0.0554.
RRIRCRPPRLPRPRPRPWPFPRP was tested, and the “shrunken log2 fold change” value was -0.121.
In the case of RRIRFRPPRLPRPRPRPHSGPRP, the “shrunken log2 fold change” value was 0.0508.
With RRIRFRPPRLPRPRPRPFNTPRP the “shrunken log2 fold change” value was -0.688.
RRIRWRPPRLPRPRPRPTSLPRP was tested, and the “shrunken log2 fold change” value was 0.0239.
In the case of RRIRVRPPRLPRPRPRPDDVPRP, the “shrunken log2 fold change” value was -0.297.
RRIRTRPPRLPRPRPRPKWGPRP was tested, and the “shrunken log2 fold change” value was 0.118.
With RRIRKRPPRLPRPRPRPCRKPRP the “shrunken log2 fold change” value was 0.0153.
With RRIRPRPPRLPRPRPRPTWEPRP the “shrunken log2 fold change” value was 0.659.
RRIRIRPPRLPRPRPRPMRSPRP was tested, and the “shrunken log2 fold change” value was 0.000106.
RRIRLRPPRLPRPRPRPTMIPRP was tested, and the “shrunken log2 fold change” value was -0.164.
With RRIRKRPPRLPRPRPRPACSPRP the “shrunken log2 fold change” value was 0.341.
For RRIRHRPPRLPRPRPRPHWIPRP, the “shrunken log2 fold change” value was -0.415.
RRIRIRPPRLPRPRPRPCAHPRP was tested, and the “shrunken log2 fold change” value was 0.0482.
With RRIRFRPPRLPRPRPRPVQRPRP the “shrunken log2 fold change” value was -0.072.
For RRIRQRPPRLPRPRPRPGPDPRP, the “shrunken log2 fold change” value was 0.163.
RRIRPRPPRLPRPRPRPVADPRP was tested, and the “shrunken log2 fold change” value was 0.295.
In the case of RRIRCRPPRLPRPRPRPTVEPRP, the “shrunken log2 fold change” value was 0.199.
With RRIRLRPPRLPRPRPRPTACPRP the “shrunken log2 fold change” value was -0.0054.
RRIRCRPPRLPRPRPRPMLRPRP was tested, and the “shrunken log2 fold change” value was 0.184.
With RRIRCRPPRLPRPRPRPDPKPRP the “shrunken log2 fold change” value was 0.0617.
With RRIRIRPPRLPRPRPRPFYRPRP the “shrunken log2 fold change” value was -0.194.
With RRIRQRPPRLPRPRPRPLWMPRP the “shrunken log2 fold change” value was -0.165.
With RRIRQRPPRLPRPRPRPPKGPRP the “shrunken log2 fold change” value was 0.021.
With RRIRTRPPRLPRPRPRPVYCPRP the “shrunken log2 fold change” value was -0.301.
RRIRMRPPRLPRPRPRPQCTPRP was tested, and the “shrunken log2 fold change” value was 0.0479.
In the case of RRIRNRPPRLPRPRPRPRPYPRP, the “shrunken log2 fold change” value was -0.25.
RRIRMRPPRLPRPRPRPGKCPRP was tested, and the “shrunken log2 fold change” value was -0.0233.
In the case of RRIRVRPPRLPRPRPRPNSIPRP, the “shrunken log2 fold change” value was 0.0266.
In the case of RRIRDRPPRLPRPRPRPHLRPRP, the “shrunken log2 fold change” value was -0.00431.
For RRIRVRPPRLPRPRPRPTVCPRP, the “shrunken log2 fold change” value was 0.518.
For RRIRPRPPRLPRPRPRPNFIPRP, the “shrunken log2 fold change” value was -0.215.
With RRIRRRPPRLPRPRPRPAQFPRP the “shrunken log2 fold change” value was 0.135.
In the case of RRIRIRPPRLPRPRPRPANMPRP, the “shrunken log2 fold change” value was -0.45.
With RRIRYRPPRLPRPRPRPAWPPRP the “shrunken log2 fold change” value was 0.363.
RRIRTRPPRLPRPRPRPRIWPRP was tested, and the “shrunken log2 fold change” value was 0.104.
In the case of RRIRTRPPRLPRPRPRPRYSPRP, the “shrunken log2 fold change” value was 0.0915.
RRIRCRPPRLPRPRPRPLGKPRP was tested, and the “shrunken log2 fold change” value was -0.101.
For RRIRERPPRLPRPRPRPTPMPRP, the “shrunken log2 fold change” value was 0.0913.
In the case of RRIRARPPRLPRPRPRPNKHPRP, the “shrunken log2 fold change” value was -0.171.
In the case of RRIRWRPPRLPRPRPRPQIHPRP, the “shrunken log2 fold change” value was -0.681.
RRIRTRPPRLPRPRPRPQCMPRP was tested, and the “shrunken log2 fold change” value was -0.133.
With RRIRGRPPRLPRPRPRPNQKPRP the “shrunken log2 fold change” value was 0.0822.
In the case of RRIRRRPPRLPRPRPRPCWMPRP, the “shrunken log2 fold change” value was 0.415.
For RRIRLRPPRLPRPRPRPKLCPRP, the “shrunken log2 fold change” value was 0.115.
RRIRVRPPRLPRPRPRPDPYPRP was tested, and the “shrunken log2 fold change” value was -0.1.
With RRIRIRPPRLPRPRPRPSAPPRP the “shrunken log2 fold change” value was -0.00138.
For RRIRERPPRLPRPRPRPMAWPRP, the “shrunken log2 fold change” value was 0.151.
With RRIRMRPPRLPRPRPRPCNFPRP the “shrunken log2 fold change” value was -0.415.
With RRIRDRPPRLPRPRPRPPYYPRP the “shrunken log2 fold change” value was -0.474.
RRIRVRPPRLPRPRPRPSAIPRP was tested, and the “shrunken log2 fold change” value was -0.258.
With RRIRSRPPRLPRPRPRPNPYPRP the “shrunken log2 fold change” value was -0.558.
With RRIRIRPPRLPRPRPRPEITPRP the “shrunken log2 fold change” value was -0.461.
In the case of RRIRNRPPRLPRPRPRPNAIPRP, the “shrunken log2 fold change” value was -0.0211.
With RRIRLRPPRLPRPRPRPDISPRP the “shrunken log2 fold change” value was 0.0207.
With RRIRNRPPRLPRPRPRPFKQPRP the “shrunken log2 fold change” value was -0.0135.
In the case of RRIRPRPPRLPRPRPRPPYFPRP, the “shrunken log2 fold change” value was 0.0747.
RRIRERPPRLPRPRPRPIQDPRP was tested, and the “shrunken log2 fold change” value was 0.876.
With RRIRNRPPRLPRPRPRPFCKPRP the “shrunken log2 fold change” value was -0.835.
With RRIRPRPPRLPRPRPRPEKIPRP the “shrunken log2 fold change” value was -0.0804.
With RRIRHRPPRLPRPRPRPSTNPRP the “shrunken log2 fold change” value was -0.275.
With RRIRWRPPRLPRPRPRPCVLPRP the “shrunken log2 fold change” value was -0.0369.
In the case of RRIRFRPPRLPRPRPRPCNMPRP, the “shrunken log2 fold change” value was -1.46.
In the case of RRIRQRPPRLPRPRPRPVQDPRP, the “shrunken log2 fold change” value was -0.0297.
With RRIRWRPPRLPRPRPRPCAYPRP the “shrunken log2 fold change” value was -0.129.
With RRIRHRPPRLPRPRPRPAGDPRP the “shrunken log2 fold change” value was 0.309.
RRIRYRPPRLPRPRPRPTWKPRP was tested, and the “shrunken log2 fold change” value was -0.333.
With RRIRNRPPRLPRPRPRPFPHPRP the “shrunken log2 fold change” value was -0.0462.
In the case of RRIRSRPPRLPRPRPRPERYPRP, the “shrunken log2 fold change” value was -0.037.
For RRIRWRPPRLPRPRPRPFMMPRP, the “shrunken log2 fold change” value was -0.587.
With RRIRHRPPRLPRPRPRPPGFPRP the “shrunken log2 fold change” value was 0.011.
For RRIRRRPPRLPRPRPRPRRFPRP, the “shrunken log2 fold change” value was 0.352.
For RRIRYRPPRLPRPRPRPIDHPRP, the “shrunken log2 fold change” value was -0.0413.
For RRIRCRPPRLPRPRPRPKPDPRP, the “shrunken log2 fold change” value was 0.296.
For RRIRFRPPRLPRPRPRPSYCPRP, the “shrunken log2 fold change” value was -0.345.
RRIRDRPPRLPRPRPRPKMEPRP was tested, and the “shrunken log2 fold change” value was -0.00783.
With RRIRKRPPRLPRPRPRPTAPPRP the “shrunken log2 fold change” value was 1.05.
For RRIRRRPPRLPRPRPRPSWYPRP, the “shrunken log2 fold change” value was 0.363.
In the case of RRIRNRPPRLPRPRPRPDQYPRP, the “shrunken log2 fold change” value was -0.337.
With RRIRMRPPRLPRPRPRPHWNPRP the “shrunken log2 fold change” value was -0.271.
For RRIRARPPRLPRPRPRPTVPPRP, the “shrunken log2 fold change” value was 0.56.
With RRIRTRPPRLPRPRPRPKFGPRP the “shrunken log2 fold change” value was -0.00436.
With RRIRNRPPRLPRPRPRPNGGPRP the “shrunken log2 fold change” value was 0.153.
RRIRKRPPRLPRPRPRPMINPRP was tested, and the “shrunken log2 fold change” value was 0.148.
With RRIRCRPPRLPRPRPRPAAHPRP the “shrunken log2 fold change” value was 0.37.
In the case of RRIRMRPPRLPRPRPRPTGDPRP, the “shrunken log2 fold change” value was 1.3.
For RRIRVRPPRLPRPRPRPNNHPRP, the “shrunken log2 fold change” value was -0.454.
In the case of RRIRYRPPRLPRPRPRPWGMPRP, the “shrunken log2 fold change” value was -0.364.
In the case of RRIRKRPPRLPRPRPRPWQFPRP, the “shrunken log2 fold change” value was 0.157.
With RRIRNRPPRLPRPRPRPYSKPRP the “shrunken log2 fold change” value was -0.926.
With RRIRFRPPRLPRPRPRPRFPPRP the “shrunken log2 fold change” value was 0.0497.
With RRIRGRPPRLPRPRPRPESKPRP the “shrunken log2 fold change” value was 1.32.
With RRIRHRPPRLPRPRPRPKTEPRP the “shrunken log2 fold change” value was -0.0292.
With RRIRGRPPRLPRPRPRPIYCPRP the “shrunken log2 fold change” value was 0.112.
For RRIRERPPRLPRPRPRPFMRPRP, the “shrunken log2 fold change” value was 0.154.
RRIRFRPPRLPRPRPRPLISPRP was tested, and the “shrunken log2 fold change” value was -0.178.
